Consider two molecules from patent US20190161517A1 (ENSOL BIOSCIENCES, published 2019).

For this test, the target named is T1, extracellular domain recombinant protein RAGE (11629-H08H, Sino Biological Inc.) (UniProt Q15109 23-342, labeled with RED fluorescent dye NT-647-NHS (sites not given)).
T1 construct: extracellular domain; Bought protein; also called Receptor for Advanced Glycation End products
Description: MST (Microscale Thermophoresis), NT-647-labeled RAGE extracellular domain, peptide titrated 50 uM to 1.52 nM, mean of three runs. The protocol: Specifically, the binding capacity of the peptide of Example 1 or 2 to RAGE was measured using MST (Microscale Thermophoresis).
Using a kit {Monolith NT™ Protein Labeling Kit RED-NHS (L001, NanoTemper Technologies)}, an extracellular domain recombinant protein RAGE (11629-H08H, Sino Biological Inc.) was bound to a RED fluorescent dye NT-647-NHS and then purified. Thereafter, a RAGE solution in which the concentration of the RED fluorescent dye NT-647-NHS labeled RAGE in an MST buffer (50 mM Tris-HCl pH 7.4, 150 mM NaCl, 10 mM MgCl₂, 0.05% Tween-20) solution was 20 μM was prepared. Also, a peptide solution was prepared in a 16-step dilution series, in which dilution was repeated with the MST buffer until the concentration of the peptide of Example 1 or Example 2 became 1.52 nM starting from 50 μM. Thereafter, the RAGE solution and the peptide solution were mixed in amounts of 100 μl each, injected into a capillary tube and then placed in the order of concentration in a Monolith NT. 115 tray (G009, NanoTemper technologies). The software was operated in accordance with the Monolith NT. 115 operating method. The same procedure was repeated three times, and the mean value of Kd (dissociation constant) was obtained.

T1 sequence (Q15109 23-342 limits assumed): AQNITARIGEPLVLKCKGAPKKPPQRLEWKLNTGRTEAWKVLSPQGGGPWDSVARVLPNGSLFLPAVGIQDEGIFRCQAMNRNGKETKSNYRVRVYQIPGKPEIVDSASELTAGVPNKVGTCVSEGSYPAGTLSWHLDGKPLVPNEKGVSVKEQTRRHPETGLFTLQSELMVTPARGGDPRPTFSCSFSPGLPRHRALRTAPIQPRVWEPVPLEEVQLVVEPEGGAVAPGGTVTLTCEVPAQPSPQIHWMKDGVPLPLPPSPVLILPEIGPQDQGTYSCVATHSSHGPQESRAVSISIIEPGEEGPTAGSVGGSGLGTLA

B1: peptide of Example 2 (DGEF) (peptide)
peptide: DGEF
notes: Synthetic peptide made by AnyGen Co., Ltd
Regarding B1, the dissociation constant Kd was found to be 80.9 nM.

B2: peptide of Example 1 (DGEFF) (peptide)
peptide: DGEFF
notes: as for B1
On to B2, for which the Kd was determined as 76.9 nM.
